Test results reported in US20100273722A1 (YALE UNIVERSITY, published 2010).
No end group written: not given here.

Tests used:
[1] = target: the molecule itself; test: sedimentation equilibrium AUC, self-association (tetramer), 25 C
[2] = target: the molecule itself; test: sedimentation equilibrium AUC, self-association, monomer-n-mer fit, 25 C
[3] = target: the molecule itself; test: sedimentation equilibrium AUC, self-association (dimer), 25 C
[4] = target: the molecule itself; test: AUC, self-association, monomer/dimer/tetramer model, dimer term, 25 C; dimer term of the monomer/dimer/tetramer model, 25 C
[5] = target: T1, human Lyn (residues 62-122) SH3 domain-GST fusion protein (human, UniProt P07948 62-122); test: fluorescence polarization, 50 nM labeled peptide, SH3-GST titrated
T1 construct: range 62-122; also called Lyn SH3

[6] = target: T2, human Lck (residues 62-128) SH3 domain-GST fusion (human, UniProt P06239 62-128); test: as above
T2 construct: range 62-128; also called Lck SH3

[7] = target: T3, human Fyn (residues 81-142) SH3 domain-GST fusion protein (human, UniProt P06241 81-142); test: as above
T3 construct: range 81-142; also called Fyn SH3

[8] = target: T4, human Hck (residues 77-137 of full-length kinase) SH3 domain-GST fusion protein (human, UniProt P08631 77-137); test: as above
T4 construct: range 77-137; also called Hck SH3

[9] = target: T1, human Lyn (residues 62-122) SH3 …; test: fluorescence polarization, 50 nM labeled peptide, SH3-GST titrated; data above 50 micromolar target excluded from the fit
[10] = target: T4, human Hck (residues 77-137 of …); test: as above

T2 sequence (P06239 62-128): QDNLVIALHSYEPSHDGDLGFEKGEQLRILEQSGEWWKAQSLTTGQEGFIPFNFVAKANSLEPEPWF
T1 sequence (P07948 62-122): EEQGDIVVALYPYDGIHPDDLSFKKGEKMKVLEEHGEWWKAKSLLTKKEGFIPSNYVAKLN
T4 sequence (P08631 77-137): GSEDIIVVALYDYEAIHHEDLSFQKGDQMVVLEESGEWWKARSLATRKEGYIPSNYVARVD
T3 sequence (P06241 81-142): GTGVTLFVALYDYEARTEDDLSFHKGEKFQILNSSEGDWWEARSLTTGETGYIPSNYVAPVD

B1: aPP^Y7AP13VV14P (peptide)
chain: GPSQPTAPGDDAVPEDLIRFYDNLQQYLNVVTRHRY-NH2
notes: Synthetic aPP variant; entries are for its self-association (tetramer); also called aPP^Y7AP13W14P
- Kd [1]: 0.00075 nM
- lnKA (n = 4) [2]: 27.9

B2: aPP^Y21A (peptide)
chain: GPSQPTYPGDDAPVEDLIRFADNLQQYLNVVTRHRY-NH2
notes: Synthetic aPP variant; entries are for its self-association (dimer)
- Kd [3]: 1300 nM
- lnKA (n = 2) [2]: 13.6

B3: aPP^Y7AP13SV14P (peptide)
chain: GPSQPTAPGDDASPEDLIRFYDNLQQYLNVVTRHRY-NH2
notes: Synthetic aPP variant with the proline switch; entries are for its self-association (monomer/dimer/tetramer)
- Kd [4]: 530000 nM

B4: aPP^Y7A (peptide)
chain: GPSQPTAPGDDAPVEDLIRFYDNLQQYLNVVTRHRY-NH2
notes: Synthetic aPP variant; entries are for its self-association (tetramer)
- Kd [1]: 0.0039 nM
- lnKA (n = 4) [2]: 26.3

B5: avian pancreatic polypeptide (aPP) (peptide)
chain: GPSQPTYPGDDAPVEDLIRFYDNLQQYLNVVTRHRY
modifications: ends and bridges not checked
notes: Bought from American Peptide Company; entries are for its self-association (dimer); also called wt aPP
- Kd [3]: 4100 nM
- lnKA (n = 2) [2]: 12.4

B6: pancreatic peptide YY (PYY) (peptide)
chain: not shown
modifications: C-terminal carboxamide
notes: Synthetic; entries are for its self-association
- Kd [3]: 830000 nM
- lnKA (n = 2) [2]: 7.09

B7: PP2^Flu (designed binder)
chain: APPLPPRNRGDDAPVEDLIRFYDNLQQYLNVVTRHRYC
modifications: ends and bridges not checked; also: fluorescently labeled, site and dye not given here
notes: also called PP2 (fluorescently labeled)
- Kd [5]: 3700 nM
- Kd [6]: 2700 nM
- Kd [7]: 14000 nM
- Kd [8]: 1300 nM

B8: PP3^Flu (designed binder)
chain: APPLPPRNRPRDAPVEDLIRFYDNLQQYLNVVTRHRYC
modifications: ends and bridges not checked; also: fluorescently labeled, site and dye not given here
notes: also called PP3 (fluorescently labeled)
- Kd [6]: 1430 nM
- Kd [7]: 2100 nM
- Kd [9]: 1800 nM
- Kd [10]: 880 nM

B9: PP1^Flu (designed binder)
chain: APPLPPRNPGDDAPVEDLIRFYDNLQQYLNVVTRHRYC
modifications: ends and bridges not checked; also: fluorescently labeled, site and dye not given here
notes: also called PP1 (fluorescently labeled)
- Kd [5]: 4900 nM
- Kd [6]: 40000 nM
- Kd [7]: 25000 nM
- Kd [8]: 3800 nM

B10: aPP^F20A (peptide)
chain: GPSQPTYPGDDAPVEDLIRAYDNLQQYLNVVTRHRY-NH2
notes: as for B4
- Kd [1]: 0.076 nM
- lnKA (n = 4) [2]: 23.3

B11: aPP^Y7AQ25R (peptide)
chain: GPSQPTAPGDDAPVEDLIRFYDNLRQYLNVVTRHRY-NH2
notes: as for B4
- Kd [1]: 0.00018 nM
- lnKA (n = 4) [2]: 29.3

B12: aPP^Y7AT6E (peptide)
chain: GPSQPEAPGDDAPVEDLIRFYDNLQQYLNVVTRHRY-NH2
notes: entries are for its self-association (tetramer); also called aPP^Y7AAT6E
- Kd [1]: 0.0002 nM
- lnKA (n = 4) [2]: 29.3
